Test system: peptide library, one residue held at a place counted from the Y acceptor
Experiment: relative phosphorylation of the sub-library (ratio to the mean residue at this position); higher = residue favoured
Summary of the method: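 Every value reflects phosphorylation relative to the mean randomized residue. The sum of the 18 randomized residues, or 16 in the Ser/Thr-free library, served to normalize intensities at each position, which were then multiplied by that number. Intensities came from phosphorimaging with ImageQuant of biotinylated Tyr-centred peptides captured on streptavidin membranes after 90 min with purified recombinant kinases and 50 μM ATP plus γ-32P-ATP.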

Chain of BLK, construct: Full length, human (P51451 whole entry, looked up): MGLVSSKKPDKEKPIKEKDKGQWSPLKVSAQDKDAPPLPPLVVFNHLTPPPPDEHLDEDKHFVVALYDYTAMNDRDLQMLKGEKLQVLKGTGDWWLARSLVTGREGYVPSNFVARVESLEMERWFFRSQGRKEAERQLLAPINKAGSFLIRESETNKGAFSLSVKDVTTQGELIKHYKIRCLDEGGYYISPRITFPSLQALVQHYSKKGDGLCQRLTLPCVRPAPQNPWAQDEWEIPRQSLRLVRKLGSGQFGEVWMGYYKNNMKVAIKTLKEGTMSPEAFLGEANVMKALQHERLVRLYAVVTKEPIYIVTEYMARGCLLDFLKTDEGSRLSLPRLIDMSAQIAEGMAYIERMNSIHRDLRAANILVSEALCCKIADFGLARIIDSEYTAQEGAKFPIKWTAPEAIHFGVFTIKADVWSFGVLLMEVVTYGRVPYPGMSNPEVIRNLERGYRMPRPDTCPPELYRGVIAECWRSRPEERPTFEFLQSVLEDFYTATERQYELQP
Chain of BMPR2, construct: aa172-end, human (Q13873 172-1038, looked up): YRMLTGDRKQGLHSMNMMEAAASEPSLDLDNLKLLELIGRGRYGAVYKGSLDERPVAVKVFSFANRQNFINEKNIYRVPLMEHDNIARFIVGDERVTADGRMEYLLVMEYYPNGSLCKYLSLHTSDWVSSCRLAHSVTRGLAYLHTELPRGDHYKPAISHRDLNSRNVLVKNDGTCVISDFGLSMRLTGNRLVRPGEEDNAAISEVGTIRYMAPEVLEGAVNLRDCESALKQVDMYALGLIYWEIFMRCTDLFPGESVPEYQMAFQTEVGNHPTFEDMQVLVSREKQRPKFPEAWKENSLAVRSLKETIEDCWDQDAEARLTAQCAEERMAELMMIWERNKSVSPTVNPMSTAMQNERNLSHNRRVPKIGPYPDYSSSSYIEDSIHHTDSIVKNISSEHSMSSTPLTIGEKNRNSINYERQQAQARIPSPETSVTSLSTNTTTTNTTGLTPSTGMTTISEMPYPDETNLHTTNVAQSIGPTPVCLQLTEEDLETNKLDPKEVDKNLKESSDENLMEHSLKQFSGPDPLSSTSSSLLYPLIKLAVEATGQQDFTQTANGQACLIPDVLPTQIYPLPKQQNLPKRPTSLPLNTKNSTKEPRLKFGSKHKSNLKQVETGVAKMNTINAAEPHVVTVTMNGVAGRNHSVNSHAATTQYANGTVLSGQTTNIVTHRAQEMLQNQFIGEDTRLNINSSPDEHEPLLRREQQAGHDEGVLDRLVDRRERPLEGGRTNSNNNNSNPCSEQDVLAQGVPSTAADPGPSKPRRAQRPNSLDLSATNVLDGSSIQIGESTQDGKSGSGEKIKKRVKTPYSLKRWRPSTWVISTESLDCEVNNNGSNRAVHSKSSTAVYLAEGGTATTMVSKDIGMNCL
Chain of BTK, construct: Full length, human (Q06187 whole entry, looked up): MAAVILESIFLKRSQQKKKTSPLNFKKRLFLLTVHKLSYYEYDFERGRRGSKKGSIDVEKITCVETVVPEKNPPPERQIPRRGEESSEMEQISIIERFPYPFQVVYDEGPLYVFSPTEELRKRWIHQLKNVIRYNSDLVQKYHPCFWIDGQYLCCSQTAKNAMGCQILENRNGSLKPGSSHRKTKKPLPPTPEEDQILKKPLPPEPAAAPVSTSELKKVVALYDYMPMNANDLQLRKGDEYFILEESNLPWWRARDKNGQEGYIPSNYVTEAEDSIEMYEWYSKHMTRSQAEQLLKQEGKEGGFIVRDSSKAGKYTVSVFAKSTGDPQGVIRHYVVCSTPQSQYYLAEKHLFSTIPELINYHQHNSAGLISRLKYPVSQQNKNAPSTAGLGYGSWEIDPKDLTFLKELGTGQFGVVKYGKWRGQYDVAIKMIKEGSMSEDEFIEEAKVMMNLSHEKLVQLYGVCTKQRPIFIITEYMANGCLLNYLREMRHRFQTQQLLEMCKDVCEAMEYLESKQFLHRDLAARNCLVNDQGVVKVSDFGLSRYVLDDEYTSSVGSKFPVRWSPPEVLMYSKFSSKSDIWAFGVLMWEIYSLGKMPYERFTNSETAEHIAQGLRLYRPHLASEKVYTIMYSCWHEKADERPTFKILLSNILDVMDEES
Chain of CSK, construct: Full length, human (P41240 whole entry, looked up): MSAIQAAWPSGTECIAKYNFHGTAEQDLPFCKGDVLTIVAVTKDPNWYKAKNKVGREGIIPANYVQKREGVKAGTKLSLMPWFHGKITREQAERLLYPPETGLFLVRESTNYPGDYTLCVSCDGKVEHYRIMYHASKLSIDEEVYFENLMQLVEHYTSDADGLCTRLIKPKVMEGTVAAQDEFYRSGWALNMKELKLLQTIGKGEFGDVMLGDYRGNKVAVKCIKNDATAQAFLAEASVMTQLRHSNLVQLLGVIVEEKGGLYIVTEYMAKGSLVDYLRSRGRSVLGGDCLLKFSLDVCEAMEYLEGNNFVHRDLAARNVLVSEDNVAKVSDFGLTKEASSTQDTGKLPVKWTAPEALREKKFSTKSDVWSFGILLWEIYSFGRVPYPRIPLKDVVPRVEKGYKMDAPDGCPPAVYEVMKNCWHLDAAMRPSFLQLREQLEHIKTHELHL

BLK, construct: Full length, human (from UniProt P51451)
relative phosphorylation
Conditions	at +1	at +2	at +3	at +4	at +5	at -1	at -2	at -3	at -4	at -5
A fixed	2.14	1.24	0.602	0.865	0.935	0.611	1.17	0.881	1.14	1.08
D fixed	1.33	0.554	0.236	0.56	0.668	0.87	1.64	1.7	1.68	1.46
E fixed	2	1.17	0.228	0.643	0.62	1.58	2.03	2.08	1.68	1.35
F fixed	0.463	0.799	1.9	1.14	1.02	0.648	0.466	0.996	0.777	0.846
G fixed	3.16	0.79	0.772	1.28	1.12	0.46	1.41	1.09	1.34	1.27
H fixed	0.603	0.666	0.822	1.2	1.08	0.592	0.778	1.05	0.879	0.978
I fixed	0.558	0.865	2.22	0.721	0.713	3.23	0.629	0.607	0.833	0.764
K fixed	0.198	0.856	0.598	1.35	1.39	0.303	0.597	0.47	0.732	0.941
L fixed	0.458	0.767	2.47	1.13	0.834	1.8	0.682	0.73	0.805	0.721
M fixed	1.11	0.83	0.927	1.16	0.938	0.995	0.605	0.853	0.913	0.816
N fixed	0.538	0.874	0.448	0.796	0.93	0.421	1.3	1.37	0.96	1.09
P fixed	0.222	1.29	0.565	0.834	1.18	0.706	1.35	0.917	1.2	1.23
Q fixed	1.16	0.957	0.414	0.998	0.87	0.589	1.15	0.926	1.09	1.12
R fixed	0.335	1.26	1.3	1.71	1.78	0.324	0.707	0.619	0.81	0.97
S fixed	1.15	1.49	0.608	0.921	1.06	0.454	1.16	1.09	0.833	0.968
T fixed	0.904	1.78	0.724	0.902	1.09	1.54	1.07	1.05	0.82	0.859
V fixed	0.71	1.18	1.29	0.759	0.786	2.31	0.762	0.62	0.737	0.753
W fixed	0.956	0.629	1.88	1.04	0.981	0.564	0.478	0.951	0.784	0.793
pThr fixed	0.782	1.66	0.255	0.373	0.472	2.81	1.61	1.16	1.21	1.35
pTyr fixed	1.22	1.85	0.494	0.629	0.643	0.876	1.17	1.55	1.41	1.4

BMPR2, construct: aa172-end, human (from UniProt Q13873)
relative phosphorylation
Conditions	at +1	at +2	at +3	at +4	at +5	at -1	at -2	at -3	at -4	at -5
A fixed	0.886	0.936	0.914	0.977	0.907	0.88	0.948	0.948	0.967	0.964
D fixed	0.835	1.34	1.18	1.05	1.04	2.25	1.25	1.33	1.31	1.29
E fixed	0.785	1.44	1.13	1.07	1.04	1.44	1.08	1.27	1.16	1.1
F fixed	0.959	0.852	0.953	0.96	0.947	0.755	1.09	0.989	1.13	1.06
G fixed	0.927	0.923	1.03	1.04	1.07	1.46	1.03	1.02	0.965	0.987
H fixed	1.03	0.986	0.995	1.08	1.06	0.796	1.09	1.1	1.14	1.05
I fixed	1.02	0.969	1.02	1	0.961	0.767	0.754	0.855	0.861	0.928
K fixed	1.11	0.898	0.966	1.04	1.06	0.708	1.06	0.872	0.875	0.942
L fixed	1.09	0.864	0.827	0.834	0.842	0.832	1.05	0.852	0.896	0.863
M fixed	1.06	0.913	0.906	0.917	0.874	0.841	0.97	0.881	0.901	0.892
N fixed	0.897	1.08	1	1	0.99	1.08	1	1.1	0.933	1.05
P fixed	1.23	0.981	1.05	1.07	1.15	0.724	0.825	0.86	0.905	0.928
Q fixed	0.917	0.994	0.979	0.957	0.972	0.92	1.01	1.01	0.987	1.03
R fixed	1.2	0.99	1.14	1.1	1.23	0.92	1.05	1.04	0.92	0.975
V fixed	1.26	1.03	1.04	0.972	0.979	0.781	0.732	0.918	0.911	0.906
W fixed	0.808	0.789	0.875	0.919	0.88	0.843	1.06	0.963	1.14	1.03
pThr fixed	2.07	1.7	1.39	1.4	1.12	3.29	1.35	1.22	1.22	1.27
pTyr fixed	1.48	2.01	1.17	1.27	1.05	2.54	1.64	2.3	2	1.47

BTK, construct: Full length, human (from UniProt Q06187)
relative phosphorylation
Conditions	at +1	at +2	at +3	at +4	at +5	at -1	at -2	at -3	at -4	at -5
A fixed	1.39	0.87	1.06	0.754	0.911	0.443	0.964	0.709	1.04	0.982
D fixed	0.67	0.561	0.345	0.63	0.755	0.375	1.14	1.22	1.19	1.1
E fixed	1.36	1.13	0.302	0.661	0.676	0.416	1.24	1.71	1.41	0.914
F fixed	0.954	1.32	1.41	1.1	1.46	1.97	0.934	1.43	1.13	1.21
G fixed	1.1	0.546	0.759	0.928	0.941	0.308	1.04	0.779	1.03	1.01
H fixed	0.657	0.679	0.995	1.02	0.909	1.3	0.871	1	0.984	1.02
I fixed	1.17	1.19	1.42	1.01	0.796	2.79	0.874	0.799	1.01	1.04
K fixed	0.398	0.873	1.01	1.17	1.05	0.294	0.708	0.644	0.736	0.884
L fixed	1.03	0.884	0.801	0.915	1.05	2.9	1.3	0.812	1.1	0.941
M fixed	1.43	1.05	0.925	1.38	1.24	1.55	0.796	1.11	1.03	1.18
N fixed	0.466	0.827	0.886	0.779	0.949	0.589	1.21	1.1	0.823	1.17
P fixed	0.181	0.636	0.553	0.772	1.23	0.526	1.19	0.967	1.03	0.99
Q fixed	0.963	0.923	0.722	1.07	0.816	0.486	0.966	0.892	1.01	0.937
R fixed	0.524	1.26	1.62	1.53	1.25	0.279	0.771	0.729	0.964	0.985
S fixed	0.888	1.05	1.14	0.749	0.755	0.375	1.15	0.814	0.725	0.766
T fixed	0.812	1.27	0.946	0.917	0.816	0.788	0.868	0.745	0.658	0.769
V fixed	1.58	1.27	1.3	0.944	0.892	1.55	1.07	0.838	0.926	0.965
W fixed	2.42	1.67	1.8	1.68	1.5	1.06	0.902	1.7	1.21	1.14
pThr fixed	1.09	1.45	0.357	0.523	0.47	0.911	1.01	0.846	0.896	0.954
pTyr fixed	1.22	1.58	0.433	0.603	0.684	1.26	1.14	1.15	1.26	1.09

CSK, construct: Full length, human (from UniProt P41240)
relative phosphorylation
Conditions	at +1	at +2	at +3	at +4	at +5	at -1	at -2	at -3	at -4	at -5
A fixed	1.41	0.875	0.728	0.981	1.32	0.815	1.34	0.852	1.16	1.05
D fixed	0.482	1.38	0.566	1.08	0.834	0.976	0.757	1.29	1.3	1.07
E fixed	0.852	1.46	0.505	1.36	0.948	1.78	0.958	2.98	1.99	1.16
F fixed	1.31	1.36	2.01	1.1	1.07	1.38	0.554	0.79	1.12	1.37
G fixed	0.515	0.485	0.648	1.17	1.14	0.362	1.07	0.915	1.23	1.15
H fixed	1.03	0.914	0.901	1.22	1.13	1.2	0.684	0.839	0.869	0.994
I fixed	1.71	1.07	2.04	0.759	0.869	2.44	1.14	0.774	0.913	1.05
K fixed	0.4	0.606	0.389	0.815	0.684	0.472	0.659	0.867	0.812	0.748
L fixed	1.13	1.08	1.07	0.746	1.02	1.24	0.761	0.763	0.86	1.07
M fixed	1.1	0.839	1.01	1.06	0.937	0.9	0.558	0.832	0.866	1.01
N fixed	0.362	1.06	0.509	0.875	0.974	0.679	0.765	0.901	0.705	0.845
P fixed	0.23	0.59	1.02	1.08	1.39	0.395	2.04	0.944	1.03	1.01
Q fixed	0.988	0.791	0.607	0.992	0.954	0.691	0.952	0.772	1.07	0.839
R fixed	0.524	0.757	0.46	0.859	0.717	0.409	0.738	0.976	0.758	0.735
S fixed	0.787	0.978	0.734	0.868	1.14	0.533	1.47	0.958	0.826	0.943
T fixed	0.803	0.829	0.689	0.879	1.07	0.926	1.16	0.918	0.715	0.897
V fixed	1.67	1.03	1.6	0.831	0.769	1.65	1.81	0.769	0.778	0.831
W fixed	2.7	1.9	2.52	1.34	1.03	1.16	0.576	0.859	1.01	1.22
pThr fixed	1.23	1.87	0.582	1.12	0.922	1.02	0.787	1.35	1.03	1.02
pTyr fixed	3.21	7.03	1.05	1.36	1.64	4.72	1.71	2.14	2.83	1.74
